Test: soluble on expression in E. coli; label from the status in PepcDB or PDB records

| Sequence | soluble on expression in E. coli |
| --- | --- |
| MGSDKIHHHHHHMADYTKMWSELGLDLKSHDALLSILGSAYGDIFLSQKDRPEGMKYFDFVMSEVHGLRIQELMEAKARGRIVVGSYCVFVPEELILAVDGVSVGLCAGAEFNFEGAEEVLPRNTCALIKSAFGFKFGKVCPYLEACDVVVGENTCDGKKKAYEILGPLVTDLYVIDLHQTKSDMGRALLKEEYRRFAAKLESVSGKKITPDSLKKGIEVVNAKRMAVKRLAAIRAADPAPISGLDALLVNQVFFYDDPVRFTHSVNQLCDELEERVKQGIGVFAQGTTRVIVSGCPMAVPNWKLPMLIESSNAVIVGEESCVGERGTRWLTEFRGETEEDLLDALTERYFSIDCAVFTPNPSRVDYVKEMTKKLNAQGVIHYSLQFCQPHMVESGPVEKELEKSGIPTLRLETDYSQEDAGQLKTRIEAFVERLENK | not soluble |
| MGSDKIHHHHHHMAEVHVIGQIIGATGFSESSLFCKWGIHTGAAWKLLSGVREGQTQVDTPQIGDMAYWSHPIDLHFATKGLQGWPRLHLQVWSQDSFGRCQLAGYGFCHVPSSPGTHQLDCPTWRPLGSWREQLARAFVGGGPQLLHADTIYSGADRYRLHTAAGGTVHLGIGLLLRHFDRYGVEC | not soluble |
| MGSDKIHHHHHHMAFFDLPLEELKKYRPERYEEKDFDEFWEETLAESEKFPLDPVFERMESHLKTVEAYDVTFSGYRGQRIKGWLLVPKLEEEKLPCVVQYIGYNGGRGFPHDWLFWPSMGYICFVMDTRGQGSGWLKGDTPDYPEGPVDPQYPGFMTRGILDPRTYYYRRVFTDAVRAVEAAASFPQVDQERIVIAGGSQGGGIALAVSALSKKAKALLCDVPFLCHFRRAVQLVDTHPYAEITNFLKTHRDKEEIVFRTLSYFDGVNFAARAKIPALFSVGLMDNICPPSTVFAAYNYYAGPKEIRIYPYNNHEGGGSFQAVEQVKFLKKLFEKG | soluble |
| MGSDKIHHHHHHMAIGIVIASHGEFAAGIHQSGSMIFGDQEKVQVVTFMPSEGPDDLYAKFNDAIAAFDADDEILVLADLWSGSPFNQASRVMEENSDRKFAIITGLNLPMLIQAYTERMMDAAAGVEQVAANIIKEAKDGVKILPEKLQPQEEAPTTSTKKAAPQGAIPEGTVIGDGKLKINLARVDTRLLHGQVATNWTPASKADRIIVASDTVAKDELRKGLIKQAAPGGVKANVVPIKKLIEAAKDPRFGNTHALILFETPQEALEAIEGGVPITELNIGSMAHSTGKTMVNNVISMDKDDVATFEKLRDLGVKFDVRKVPNDSQKDLFELIEKAHVQ | not soluble |
| MGSDKIHHHHHHMAISVTAEEKQILAGVTIPPRPQALLDISKEAKQEYPDVSKIAKAISEDVGISAAVLQVVNSVAFRRNNQISSIHQAVMTLGIKRIFPLVKAVAIKGALPENPMLNEFWQSSSMVASACTLYANLLGKANLSDNAYMLGLFHNAGVPVMLQAFPAYQALLMRGITEGWGEVASLEVQEFKTSHTTLGALLAQQWELPKPMVEVIYYLHDIDGIFTSGELSEVGLYLLAILKLARSSVDGVIRGECNTDEWLKIQDPLLAFLNLDEVQLDEFREEVAEKLRSEG | not soluble |
| MGSDKIHHHHHHMAKAKTAYSCTECGGQTPKWQGQCPSCMAWNTLVESVVEAAPSQNRYAALAQSSGLQKLADVEAADVPRHPTGIHEFDRVLGGGLVPGGVVLIGGDPGIGKSTLLLQTLCHIGGMRKAVYVSGEESAQQIAMRAKRLGLDAGPVELLAEISLEKILAILQQHKPEVAVIDSIQTLYSEALQSAPGSVAQVRECSAQLTRFAKQTGVTMILVGHVTKEGSLAGPRVLEHIVDTVLYFEGGQNSSFRLVRAFKNRFGAVNELGVFAMTEKGLREVSNPSALFLSHHAEQVAGSCITVTQEGSRPLLVEVQALVDEAHAPNPKRLCVGLEQNRLAMLLAVLHRHAGVACFDQDVFINAVGGVRISEPAVDLAVLLAIVSSLKNKPLNNKLIVFGEVGLAGEVRPVQRGQERLREAAKLGFTHAIVPKANLPKQVIDGLDVKGVERLDQALQLLRNG | not soluble |
| MGSDKIHHHHHHMAKKHEPFVIGDVSVAAGTQQSVKLPAAKLYNDTPMDLHVEVFHGTKAGPVLLVCAAIHGDELNGIEICRRLLGRVNAKTLTGTLLIVPIVNVFGFIQQSRYLPDRRDLNRCFPGSAKGALASRLAHLFSSILVKRATHIVDLHTGAIHRDNLPQIRCDTDDEVMLDMANAFGAPVIMSSKAREGSMRGYANSLNIPCILYEAGEALRFSDMSIKSGVNGVINVMRCLSMTKGKIKTKSTSVNASRSYWVRSESDGLVNIKLKLGERVSKGQVLANIVNPLGGEPSPLLAPTDGIIIGNSNIPVTNEGEALFHIAQFSGDEIEIINDNLDDFMQEYA | not soluble |
| MGSDKIHHHHHHMAMNDNNINTCRYRVDVPYPPVRVVGPNPVYACEMLGNMGDAVSEMSDVTRYFYISVVTKPQYSWISACFRDISIVEMHHLNIFAELALLLGADPRLWSCRDCMQWWSPSYIGYPHGVRPLIAESIQAEEAAIRKYSHQADTICDMNIVAILRRIIQDEMYHLQIFREMYQQV | not soluble |
| MGSDKIHHHHHHMANGLQRLIRSLKLVARYGLIVMNDGLICLPIKQRQVVFESFNGKDVNDNPAAIYRELVATAPEYRTTAYFSVKPREFAALHKKYPQIQLVKRFTPRWVWLMARAEFWVLNSRLPNWWHQNRRTTVIQTWHGTPLKKLGADIEHVAIPGTTTAAYHQEFKTAASRWQYLIAPNQYSQTIFKSAFGFHHQFLSVGYPRNDRLYTTLPAEITDLKQQLLGSTKGPVVTYAPTWRDDMAVRPGVYQFDLPFDLAEFFQHVPANTQLIIRPHYLVKDAIDIHGFEERVHVLAETDITDLYLISDLLITDYSSVMFDFANLQRPQLFFAYDLAHYRDQLRGFYFDYEQEIPGPLVTTASAFYAQLDRWRQDGAFHDYQARQAAFYEKFCSWENGTASRQVVQVMLHGKDEIK | not soluble |
| MGSDKIHHHHHHMANNFDLHAALTLATKPGPFVTMTLPVTGIPATDRTQFNSLLKQGKEQLEKVAPDRTWSAYAESFTPFEHGPLTNGSATGLLIMAGASDSYHYWLHTPVAATVTVTYQPNVLPILQAQDKTSDYDILLLGRDAFDLAQVRNGRPEMVNLPVDAPVTLEKALGSELRDRGRWQRSAGEHTQYSGTGSLDTAREADQRNYFMMVDAYVSQHYSNVDQVPLILVANASDQGNFRKFSQNAYLDHVVRVVQGPNLAAANQTLAALALSITEQRHQQATQIRRDAYAKVRQNQQVVQDLGPLATAAVQGQVAKLWLRDDASQPGHLTEKGTVMTATALSRQNNLYNDLALQVSRLGGQVEVLPADAMPTSNPVAAQLRLRETVAH | not soluble |
| MGSDKIHHHHHHMARKISDYHLKKREETQKKFIDLLAQNNYIHISGDMVNSKTKVKVRCRHNHTWQVNYEHFKKGTRCPECRIIEGSLKKRLNISTVKSRYALKGYEILSTYKNCHSKLKAKCPEGHIWEHLPSNFFKGEECFQCKGAKKYTVECAQAAFSDRGFIPLFDTYHHNKENLPFLCKEHIDLGVQYAPLHNMVRGLANCRKCYLLLFTGENSSRWKGGISSLNKTLREAVYEVWTKPSLEKYSFKCAITNSTKDLHVHHYKKNFSEIVKEALSNLSFEL | not soluble |
| MGSDKIHHHHHHMARTNPHRPFVPDPEQAALAPGVSGNDINGLGETAFRRPRMVYWAPDPDDIPHGSLQRYFYRQSAKEPDFASRRAARQAVLDAPLPLLADTVVIRDPADWTAALTQFVDSGLCDLTGVAEMNPDWVFEGHEIPQSRVIMIGVAHDYNVIATAPKPSAGLEVMTQYTRAAQAAKTIAGWLRQQGWQAEPLTGPMTGALAMIPPALACGFGELGKHGSIINPDLGASFRLSAVLSDAPFAPTPAQDHGIDGFCQNCHICQDACPPEALFAQKQTVRGARKWYVDFDKCLPFFNQTHGCAICIAECPWSRPGIGPNLAAKLARKRNRDATG | not soluble |
| MGSDKIHHHHHHMARTVVVGLGRSGIGAARLLQAEGHQVTVLERSIEPHLQSLAADLRLQGIAVELGKPLELNSFIPLLDQLDAVVISPGIAWDHPTLTALRQRGIDIDGEMAVAWRSLSHLPWIAITGTNGKTTVTHLLNHVLESNGLRAPMGGNVGHAAAEVALKWRQPNAQRPDWLVMELSSYQIEAAPEIAPRMGIWTNLTPDHLERHGTLDAYRTIKRGLLERSEIRIFNGDDPDLRSQRSSWDKGLWVSSEGPGTANHRADFWIDAEGLVREPQGALFAASALAMPGQHNLQNLLLVTAAARQTGLPAKAIEASLRSFPGVPHRLEQLGHIQQMSVYNDSKATNYDAACVGLKAVPPPAVVLAGGQTKQGDASGWLKQLDQNACAVILFGAGASELQELIKTSGFSGELHCCSNLNAAVTLAIPLGVERQAACLLLSPACASFDQYQDFEARGEHFRSLISSHLTA | not soluble |
| MGSDKIHHHHHHMARYYMPAEGDSYLKKVWTWATTGKRFRPSFPRTIEFQTLSTCNAKCIFCPHKHSPKDIPHGRMDDALFRKIVDECARHFVGRVSPYLTNEPLMDKRMPEMLRYIHDKMPFFTKSKINTNAALLTEETGEALIRAGLTHLWISVNGYSPETYRTSMDLDLDRTLTNIDTFLATKRRLGAKNPKVIVTTVETNIVKPELDYARKYWKERDIVFKVHAMDNRAGADSLTFKASKPKLKRNCDLFLKQAYIVENGDMIICCHDWKQTVKVGNVAETSIKEVWNSRYFTDLIRDYVRGDYSRLGICAKCSS | not soluble |
| MGSDKIHHHHHHMASLTFLGAAQEVTGSCYLLETLDGVKVLLECGMRQGRREADNGNRAPFPFDPASIDAVVISHAHLDHSGLLPRLAAEGFKGPIFATEATCELLELMLLDSAHIQEKDAEWENRWRNRIGKPSIKPLYTQADTERALKLRRPISLGSTVAVARGVRVTFHNAGHILGSSIVEVQFHDQVQPRRLVFSGDLGNTCSPLMRAPSPLSRADVVMLESTYGDRDHRDSNDTLEELAAILDQAHRDGGNVLIPSFAVGRTQDLLYYLGRFYQEGRLPQQAVFLDSPMAARANGIYLRHSNEFDDRDREYIRGTGTTRLEEWLPVLRVTRSADESMAINRIKSGAVIIAGSGMCTGGRIVHHFKHNLWRPECHVVFPGFQARGTLGRNIVDGASAVRVFHQRIAVKAQIHTLGGFSAHAGQSQLLDWVGHFAHRPALYLIHGEREKMEALQSAIRERLDWDAEIPEPGERIEI | not soluble |
| MGSDKIHHHHHHMASSGTEHDAMRARLVDVAQAIVEERGGAGLTLSELAARAGISQANLSRYFETREDLMEAIADYWFHPMVEIMEDVLASDLPPRRKMYEFFARRFVVMRRKWEADPVKLQTYIEVGNDYFEQVRSYIDLADHYLGEIIGEAMSDGAFSGLEVDETISLVNQMCAPYCALNTMTTFMERLSEDKLARIVDAVFDGLSAQDRGARSLTGLRAA | not soluble |
| MGSDKIHHHHHHMASTTPEGLEIRPRHLDFDLPDPMPRHWHSGDAFKTHMFNAMSVLFPDGERFFIDSVRHYRERVEDPALKQQIRGFIGQEGHHSREHLVYSDRLRALGYDIDRLEGGAKRRIRFAQQKLHPSRQLAATAALEHLTAIMADGLLSNPRWLEGADPTMARLWRWHALEETEHKAVAYDVFMLVNGKARLRRRAMVQGTFFFALDTTKGLVHMLKRDGLLWNFKVWRDGIKWLWGKDGVFRSLVGVYLDFYKKDFHPWQHNNLHLIEQYRDQFEPEPKAA | not soluble |
| MGSDKIHHHHHHMATALYTANDFILISLPQNAQPVTAPGSKTDSWFNETLIGGRAFVSDFKIPEFKIGSLDTLIVESEELSKVDNQIGASIGKIIEILQGLNETSTNAYRTLPINNMPVPEYLENFQWQTRKFKLDKSIKDLITLISNESSQLDADVRATYANYNSAKTNLAAAERKKTGDLSVRSLHDIVKPEDFVLNSEHLTTVLVAVPKSLKSDFEKSYETLSKNVVPASASVIAEDAEYVLFNVHLFKKNVQEFTTAAREKKFIPREFNYSEELIDQLKKEHDSAASLEQSLRVQLVRLAKTAYVDVFINWFHIKALRVYVESVLRYGLPPHFNIKIIAVPPKNLSKCKSELIDAFGFLGGNAFMKDKKGKINKQDTSLHQYASLVDTEYEPFVMYIINL | not soluble |

Reference: the DeepSol protein solubility set
